Test results published in patent publication US20210130420A1, “RECOMBINANT BINDING PROTEINS TARGETING HER2 AND SERUM ALBUMIN, AND THEIR USES” (Molecular Partners AG, priority 2016, published 2021).
Where “and” joins values, the source holds several entries; their conditions need not be identical. Equal values may be shown once.

Experiments:
[1] = test system: SKBR-3, SKOV-3, NCI-N87, ZR-75-30, HCC1419, or MDA-MB175; test: Proliferation inhibition on a variety of cancer cell-lines; type: cell-based
[2] = Pharmacokinetic analysis in cynomolgus monkey; type: in vivo
[3] = Thermal stability by circular dichroism; type: physicochemical; conditions: 0.4 μM in PBS
Procedure: Protein #21 was expressed and purified as described in Example 1. Thermal stability was evaluated using circular dichroism using a Jasco J-815 CD spectrometer in a nitrogen atmosphere (3 L/min). Protein #21 at 0.4 μM in PBS in 117.100F-QS cuvettes (Hellma, d=1 cm) with in-solution temperature control sensors were measured, heating from 20° C. to 95° C. (below 45° C.: +3° C./min; above 45° C.: +1° C./min recording the signal at 222 nm, a 1 min delay at 95° C. and a subsequent cooling phase (inverted program compared to heating phase). The CD signal was normalized to mean residual ellipticity (MRE) with the unit deg cm2 dmol-1. Additionally, the far-UV CD spectrum was recorded.

[4] = molecular target: human HER2 and human serum albumin (Homo sapiens, UniProt P02768+P04626); test: Surface plasmon resonance simultaneous binding
[5] = molecular target: extracellular domains of HER3 (Homo sapiens, UniProt P21860); test: Surface plasmon resonance interaction with HER3; type: binding
[6] = test system: Foxo3a protein; test: Cellular levels of Foxo3a protein in NCI-N87 cells; type: cell-based; conditions: compared to an exposure to PBS only
Source text: Protein #21 was expressed and purified as described in Example 1. […] Cells were then subjected to a phospho-proteome mass-spectrometry analysis as described by Britton, D., et al. (Britton, D., Zen, Y., Quaglia, A., Selzer, S., Mitra, VI., Lössner, C., Jung, S., Bohm, G., Schmid, P., Prefot, P., Hoehle, C., Koncarevic, S., Gee, J., Nicholson, R., Ward, M., Castellano, L., Stebbing, J., Zucht, H. D., Sarker, D., Heaton, N., and Pike, I., 2014. PLOS One 9 (3), e90948).
It is known to the practitioner in the art, that Akt1 phosphorylates Foxo3a, resulting in the degradation of Foxo3a and promotion of cell survival. Inhibition of Act phosphorylation leads to stabilization of Foxo3a and thus increase in Foxo3a levels. At increased levels Foxo3a can translocate to the nucleus and induce apoptosis.

B1: Protein #21: SEQ ID NO: 21; HER2 binding domains (SEQ ID NOs: 16, 17) flanked by two serum albumin binding domains (SEQ ID NO: 14), SEQ ID NO: 9 linkers (protein)
chain: GSDLGKKLLEAARAGQDDEVRELLKAGADVNAKDYFSHTPLHLAARNGHLKIVEVLLKAGADVNAKDFAGKTPLHLAANEGHLEIVEVLLKAGADVNAQDIFGKTPADIAADAGHEDIAEVLQKAAGSPTPTPTTPTPTPTTPTPTPTGSDLGIKLLFAAAKGQDDEVRELLKAGADVNAKDFQGVTPLHIAAQSGHLEIVEVLLKAGADVNAKDVTGDTPLHLAAQHGHLEIVEVLLKAGADVNAQDERGWTPADLAADWGHEDIAEVLQKAAGSPTPTPTTPTPTPTTPTPTPTGSDLGKKLLEAARAGQDDEVRELLKAGADVNAKDEYGLTPLYLATAHGHLEIVEVLLKAGADVNAVDAIGFTPLHLAAFIGHLEIAEVLLKAGADVNAQDKFGKTPADIAAGAGNEDIAEVLQKAAGSPTPTPTTPTPTPTTPTPTPTGSDLGKKLLEAARAGQDDEVRELLKAGADVNAKDYFSHTPLHLAARNGHLKIVEVLLKAGADVNAKDFAGKTPLHLAANEGHLEIVEVLLKAGADVNAQDIFGKTPADIAADAGHEDIAEVLQKAA
modifications: Protein comprising four designed ankyrin repeat domains
- proliferation inhibition on cancer cell-lines [1]: strong proliferation inhibition
- dose dependence of the terminal half-life ([2]; 1 mg/kg, 10 mg/kg and 100 mg/kg): dose dependent increase
- pharmacokinetic properties compared to PEGylated Protein #28 ([2]; 5 mg/kg doses): markedly improved pharmacokinetic properties
- terminal half-life ([2]; 100 mg/kg): 109.5 h and 130.6 h
- temperature above which loss of signal at 222 nm is detected [3]: above 78 °C
- simultaneous binding of human HER2 and human serum albumin [4]: can bind human HER2 and human serum albumin simultaneously
- interaction with extracellular domains of HER3 [5]: does not interact
- increase of cellular levels of Foxo3a protein [6]: 2.8 fold
